± gives the uncertainty stated by the source.
Test: self-splicing fitness, log relative to wild type (ln ratio); higher = more splicing; Tetrahymena group I intron in knt gene, E. coli kanamycin selection, DiMSum; sequences stand for … in CUCUCU…GGAGGGAAAAGUUAUCAGGCAUGCACCUGGUAGCUAGUCUUUAAACCAAUAGAUUGCAUCGGUUUAAAAGGCAAGACCGUCAAAUUGCGGGAAAGGGGUCAACAGCCGUUCAGUACCAAGUCUCAGGGGAAACUUUGAGAUGGCCUUGCAAAGGGUAUGGUAAUAAGCUGACGGACAUGGUCCUAACCACGCAGCCAAGUCCUAAGUCAACAGAUCUUCUGUUGAUAUGGAUGCAGUUCACAGACUAAAUGUCGGUCGGGGAAGAUGUAUUCUUCUCAUAAGAUAUAGUCGGACCUCUCCUUAAUGGGAGCUAGCGGAUGAAGUGAUGCAACACUGGAGCCGCUGGGAACUAAUUUGUAUGCGAAAGUAUAUUGAUUAGUUUUGGAGUACUCGUGGUCG
Outline: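 The eight P1ex-region nucleotides of an intron in the knt kanamycin-resistance gene on pET-22b(+) were all randomised and the library put into E. coli BL21(DE3). Six replicate transformations were grown overnight at 37°C or 30°C on LB agar with or without 25 μg/mL kanamycin, together with 100 μg/mL carbenicillin, 50 μM IPTG and 0.2% rhamnose. Colonies were pooled and amplicon-sequenced on an Illumina HiSeq 2500. Fitness from DiMSum is the error-weighted combination of wild-type-normalised replicate fold changes, kanamycin over none.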

UGCUAGCAAUAUUACGGGUC
self-splicing fitness (ln) (30 °C): -2.99 ± 0.16 | self-splicing fitness (ln) (37 °C): -2.62 ± 0.18

UAUAAGCAAUAUUACGCCUA
self-splicing fitness (ln) (30 °C): 0.213 ± 0.12 | self-splicing fitness (ln) (37 °C): 0.0424 ± 0.17

CGCUAGCAAUAUUACGGACG
self-splicing fitness (ln) (30 °C): -2.4 ± 0.17 | self-splicing fitness (ln) (37 °C): -0.45 ± 0.17

CGUCAGCAAUAUUACGACCU
self-splicing fitness (ln) (30 °C): -0.193 ± 0.13 | self-splicing fitness (ln) (37 °C): 0.326 ± 0.15

AGCGAGCAAUAUUACGGAGA
self-splicing fitness (ln) (30 °C): -2.52 ± 0.26 | self-splicing fitness (ln) (37 °C): -2.14 ± 0.3

GUUUAGCAAUAUUACGCCAU
self-splicing fitness (ln) (30 °C): -1.68 ± 0.4

GUCCAGCAAUAUUACGCGUA
self-splicing fitness (ln) (30 °C): -0.0475 ± 0.068 | self-splicing fitness (ln) (37 °C): 0.185 ± 0.07

AAUAAGCAAUAUUACGGCUU
self-splicing fitness (ln) (30 °C): -0.403 ± 0.12 | self-splicing fitness (ln) (37 °C): -0.12 ± 0.14

UGCAAGCAAUAUUACGUAUU
self-splicing fitness (ln) (30 °C): -3.36 ± 0.37 | self-splicing fitness (ln) (37 °C): -2.08 ± 0.21

CAAUAGCAAUAUUACGCUUU
self-splicing fitness (ln) (30 °C): -4.34 ± 0.27 | self-splicing fitness (ln) (37 °C): -2.2 ± 0.19

ACAUAGCAAUAUUACGGAUC
self-splicing fitness (ln) (30 °C): -3.05 ± 0.15 | self-splicing fitness (ln) (37 °C): -1.21 ± 0.12

CUGAAGCAAUAUUACGCUUG
self-splicing fitness (ln) (30 °C): -2.33 ± 0.13 | self-splicing fitness (ln) (37 °C): -1.79 ± 0.14

UAGUAGCAAUAUUACGGGUC
self-splicing fitness (ln) (30 °C): -4.67 ± 0.46 | self-splicing fitness (ln) (37 °C): -2.97 ± 0.47

CCUCAGCAAUAUUACGUUAG
self-splicing fitness (ln) (30 °C): -3.27 ± 0.15 | self-splicing fitness (ln) (37 °C): -2.14 ± 0.14

GACUAGCAAUAUUACGGUCU
self-splicing fitness (ln) (30 °C): -3.36 ± 0.22 | self-splicing fitness (ln) (37 °C): -3.21 ± 0.33

UAGAAGCAAUAUUACGUGUU
self-splicing fitness (ln) (30 °C): -3.84 ± 0.14 | self-splicing fitness (ln) (37 °C): -2.42 ± 0.11

GUUGAGCAAUAUUACGUGGG
self-splicing fitness (ln) (30 °C): -3.09 ± 0.23 | self-splicing fitness (ln) (37 °C): -1.97 ± 0.18

GUUGAGCAAUAUUACGUCUA
self-splicing fitness (ln) (30 °C): -2.72 ± 0.46 | self-splicing fitness (ln) (37 °C): -0.927 ± 0.24

AAUGAGCAAUAUUACGGCUU
self-splicing fitness (ln) (30 °C): -1.85 ± 0.19 | self-splicing fitness (ln) (37 °C): -1.19 ± 0.18

AUAUAGCAAUAUUACGACUA
self-splicing fitness (ln) (30 °C): -0.8 ± 0.3 | self-splicing fitness (ln) (37 °C): -0.351 ± 0.29

GUAUAGCAAUAUUACGCCGG
self-splicing fitness (ln) (30 °C): -2.45 ± 0.37 | self-splicing fitness (ln) (37 °C): -1.59 ± 0.35

AUUAAGCAAUAUUACGUAUG
self-splicing fitness (ln) (30 °C): -2.74 ± 0.25 | self-splicing fitness (ln) (37 °C): -1.47 ± 0.21

AUGCAGCAAUAUUACGUCUG
self-splicing fitness (ln) (30 °C): -3.64 ± 0.35 | self-splicing fitness (ln) (37 °C): -0.405 ± 0.16

AUCCAGCAAUAUUACGAUCC
self-splicing fitness (ln) (30 °C): -1.43 ± 0.21 | self-splicing fitness (ln) (37 °C): -0.865 ± 0.21

GCUCAGCAAUAUUACGUUUC
self-splicing fitness (ln) (30 °C): -0.455 ± 0.065 | self-splicing fitness (ln) (37 °C): -0.0579 ± 0.091

CGGGAGCAAUAUUACGAGAG
self-splicing fitness (ln) (30 °C): -3.34 ± 0.26 | self-splicing fitness (ln) (37 °C): -3.18 ± 0.32

ACAAAGCAAUAUUACGCUAC
self-splicing fitness (ln) (30 °C): -3.07 ± 0.28 | self-splicing fitness (ln) (37 °C): -2.43 ± 0.33

CUGCAGCAAUAUUACGGAUG
self-splicing fitness (ln) (30 °C): -1.16 ± 0.061 | self-splicing fitness (ln) (37 °C): -0.415 ± 0.081

CUUCAGCAAUAUUACGCUGG
self-splicing fitness (ln) (30 °C): -3.83 ± 0.21 | self-splicing fitness (ln) (37 °C): -2.15 ± 0.14

CCAAAGCAAUAUUACGGUUG
self-splicing fitness (ln) (30 °C): -1.18 ± 0.062 | self-splicing fitness (ln) (37 °C): -0.628 ± 0.074

UAAGAGCAAUAUUACGCAGG
self-splicing fitness (ln) (30 °C): -4.39 ± 0.36 | self-splicing fitness (ln) (37 °C): -2.2 ± 0.2

GCUCAGCAAUAUUACGAGAC
self-splicing fitness (ln) (30 °C): -3.42 ± 0.32 | self-splicing fitness (ln) (37 °C): -0.338 ± 0.2

CUCAAGCAAUAUUACGAAUC
self-splicing fitness (ln) (37 °C): -1.91 ± 0.3

CAAAAGCAAUAUUACGGCAG
self-splicing fitness (ln) (30 °C): 0.126 ± 0.077 | self-splicing fitness (ln) (37 °C): -0.164 ± 0.089

UCUGAGCAAUAUUACGGCUC
self-splicing fitness (ln) (30 °C): -2.63 ± 0.22 | self-splicing fitness (ln) (37 °C): -2.14 ± 0.24

AGAGAGCAAUAUUACGCGGU
self-splicing fitness (ln) (30 °C): -3.79 ± 0.43 | self-splicing fitness (ln) (37 °C): -2.17 ± 0.46

AAUAAGCAAUAUUACGGUCG
self-splicing fitness (ln) (30 °C): -1.03 ± 0.098 | self-splicing fitness (ln) (37 °C): -0.232 ± 0.12

GGCGAGCAAUAUUACGUACA
self-splicing fitness (ln) (30 °C): -1 ± 0.18 | self-splicing fitness (ln) (37 °C): 0.151 ± 0.15
